Results from article PMC2174279 (The Journal of Cell Biology, 2000).

T1: peptide PBS2 (NKPLPPLPVA), LexA bait (S. cerevisiae)
T1 peptide: NKPLPPLPVA

T2: peptide PRP2 (PPPYQAPHPP), LexA bait
T2 peptide: PPPYQAPHPP

T3: peptide PRP1 (QPDHPPPSPP), LexA bait
T3 peptide: QPDHPPPSPP


Tests used:
Assay in all cases: two-hybrid
[1] = target: T1, peptide PBS2 (NKPLPPLPVA), LexA bait
[2] = target: T2, peptide PRP2 (PPPYQAPHPP), LexA bait
[3] = target: T3, peptide PRP1 (QPDHPPPSPP), LexA bait

| LacZ expression (two-hybrid) [1] [Miller units] | LacZ expression (two-hybrid) [2] [Miller units] | LacZ expression (two-hybrid) [3] [Miller units] | Binder |
| --- | --- | --- | --- |
| 190 |  |  | SH3 domain of Sho1p (176-367) (domain or fragment) not shown |
|  | 255 | 406 | Myo5p-SH3-AD (1020-1219) (domain or fragment) NKAATRRSVPNPASTLTASQSNARPSPPTAATRATPAATPAAAAMGSGRQANIPPPPPPPPPSSKPKEPMFEAAYDFPGSGSPSELPLKKGDVIYITREEPSGWSLGKLLDGSKEGWVPTAYMKPHSGNNNIPTPPQNRDVPKPVLNSVQHDNTSANVIPAAAQASLGDGLANALAARANKMRLESDDEEANEDEEEDDW |
